# Assay results as given in paper PMC8452709, “Effects of apolipoprotein E isoform, sex, and diet on insulin BBB pharmacokinetics in mice” (Scientific Reports, 2021).
# How the values were obtained:
# [1] = tested on: brain endothelial cell; assay: 125I-insulin reversible vascular binding (Vi), y-intercept of multiple-time regression; type: in vivo, mice (human E3- and E4-targeted replacement); conditions: for Vi, reversible vascular binding: 15 mo, iv, albumin-corrected
# Method: (§1) Ten micrograms of human insulin (Sigma-Aldrich, St. Louis, MO, USA) was diluted in 0.25 M chloride-free sodium phosphate buffer (PB), pH 7.5, and radioactivity labeled with 0.5–1 mCi Na^125I (Perkin Elmer, Waltham, MA, USA) using the chloramine-T (Sigma-Aldrich) method similar to our previously reported methods. […] Protein labelling by ^125I or by ^99mTc isotopes was characterized by 15% trichloroacetic acid (TCA) precipitation.
# (§2) Mice were anesthetized with an intraperitoneal injection of 0.1–0.15 ml 40% urethane to minimize pain and distress. […] Blood from the left carotid artery was collected between 0.5 and 10 min after intravenous injection. Mice were immediately decapitated and their whole brains quickly removed and weighed. Each mouse provided a single blood sample and time matched brain sample. The arterial blood was centrifuged at 5400g for 10 min at 4 °C and serum collected. The brains were dissected into regions according to the method described in Ref.[56] and weighed. The levels of radioactivity in serum (50 μl) and brain regions were counted in a gamma counter (Wizard2, Perkin Elmer, Waltham, MA). […] Expt was calculated from the formula:1 Exposuretime=∫0tCptdt/Cpt, where Cp is the level of radioactivity (cpm) in serum at time (t). Expt corrects for the clearance of peptide from the blood. The influx of insulin was calculated by multiple-time regression analysis as described by Patlaket al.[55],[57]:2 Am/Cpt=Ki∫0tCptdt/Cpt+Vi, where Am is level of radioactivity (cpm) per g of brain tissue at time t, Cpt is the level of radioactivity (cpm) per ml arterial serum at time t, Ki (μl/g-min) is the steady-state rate of unidirectional solute influx from blood to brain. Vi (μl/g) is the level of rapid and reversible binding for brain which usually is a combination of vascular space plus any brain endothelial cell receptor binding. The brain/serum (B/S) ratios for insulin were corrected for vascular space by subtracting the corresponding ratio for albumin, yielding a delta B/S ratio. The linear portion of the relation between the delta B/S ratio versus Expt was used to calculate the Ki (μl/g-min) with its standard error term, and the y-intercept determined as representation of the Vi (μl/g)[55].
# (§3) As a priori sex differences were expected, male and female data were analyzed separately. Regression analyses and other statistical analyses were performed with Prism 8.0 (GraphPad Software Inc., San Diego, CA, USA) and SPSS (Chicago, IL) software. Brain weight means are reported with their standard error terms and analyzed using two-way analysis of variance (ANOVA) followed by Sidak’s post hoc test when appropriate. For pharmacokinetic studies, the slope of the linear regression lines (Ki), reported with their correlation coefficients (r), and y-intercepts (Vi) were compared statistically using the Prism software, as described.
# [2] = tested on: blood–brain barrier (BBB); assay: 125I-insulin BBB transport, multiple-time regression analysis (Ki); type: in vivo, mice (human E3- and E4-targeted replacement); conditions: for Ki, linear BBB transport (unidirectional influx rate): 15 mo, iv, albumin-corrected
# Method: as §1, §2, §3
# [3] = female E3 HFD mice, hippocampus
# [4] = female E3 HFD mice, parietal cortex
# [5] = female E3 HFD mice, pons/medulla
# [6] = female E3 LFD mice, hippocampus
# [7] = female E3 LFD mice, pons/medulla
# [8] = female E4 HFD mice, frontal cortex
# [9] = female E4 HFD mice, pons/medulla
# [10] = female E4 LFD mice, hypothalamus
# [11] = female E4 LFD mice, pons/medulla
# [12] = male E3 HFD mice, occipital cortex
# [13] = male E3 LFD mice, occipital cortex
# [14] = male E3 LFD mice, olfactory bulb
# [15] = male E4 LFD mice, parietal cortex
substance,measurement,setting,value
125I-insulin: human insulin (Sigma-Aldrich) radioactively labeled with Na125I by the chloramine-T method,"Vi, reversible vascular binding",[1]; [3],5.8 µL/g
same,"Vi, reversible vascular binding","[1]; female E3 HFD mice, midbrain",2.1 µL/g
same,"Vi, reversible vascular binding",[1]; [4],2.3 µL/g
same,"Vi, reversible vascular binding",[1]; [5],4.4 µL/g
same,"Vi, reversible vascular binding","[1]; female E3 LFD mice, frontal cortex",6.3 µL/g
same,"Vi, reversible vascular binding",[1]; [6],5.1 µL/g
same,"Vi, reversible vascular binding","[1]; female E3 LFD mice, hypothalamus",-0.2 µL/g
same,"Vi, reversible vascular binding","[1]; female E3 LFD mice, olfactory bulb",11.7 µL/g
same,"Vi, reversible vascular binding",[1]; [7],7.9 µL/g
same,"Vi, reversible vascular binding","[1]; female E3 LFD mice, striatum",4.0 µL/g
same,"Vi, reversible vascular binding","[1]; female E3 LFD mice, thalamus",8.4 µL/g
same,"Vi, reversible vascular binding",[1]; [8],5.2 µL/g
same,"Vi, reversible vascular binding","[1]; female E4 HFD mice, occipital cortex",4.1 µL/g
same,"Vi, reversible vascular binding",[1]; [9],3.0 µL/g
same,"Vi, reversible vascular binding","[1]; female E4 LFD mice, hippocampus",8.8 µL/g
same,"Vi, reversible vascular binding",[1]; [10],4.4 µL/g
same,"Vi, reversible vascular binding","[1]; female E4 LFD mice, midbrain",5.4 µL/g
same,"Vi, reversible vascular binding","[1]; female E4 LFD mice, occipital cortex",3.9 µL/g
same,"Vi, reversible vascular binding","[1]; female E4 LFD mice, parietal cortex",7.9 µL/g
same,"Vi, reversible vascular binding",[1]; [11],9.4 µL/g
same,"Vi, reversible vascular binding","[1]; female E4 LFD mice, striatum",6.3 µL/g
same,"Vi, reversible vascular binding","[1]; female E4 LFD mice, thalamus",8.8 µL/g
same,"Vi, reversible vascular binding",[1]; [12],0.2 µL/g
same,"Vi, reversible vascular binding","[1]; male E3 HFD mice, olfactory bulb",0.4 µL/g
same,"Vi, reversible vascular binding","[1]; male E3 HFD mice, pons/medulla",1.7 µL/g
same,"Vi, reversible vascular binding","[1]; male E3 HFD mice, thalamus",2.3 µL/g
same,"Vi, reversible vascular binding","[1]; male E3 LFD mice, frontal cortex",4.0 µL/g
same,"Vi, reversible vascular binding",[1]; [13],5.0 µL/g
same,"Vi, reversible vascular binding",[1]; [14],5.9 µL/g
same,"Vi, reversible vascular binding","[1]; male E3 LFD mice, parietal cortex",5.8 µL/g
same,"Vi, reversible vascular binding","[1]; male E4 HFD mice, pons/medulla",3.4 µL/g
same,"Vi, reversible vascular binding","[1]; male E4 HFD mice, striatum",4.2 µL/g
same,"Vi, reversible vascular binding","[1]; male E4 LFD mice, cerebellum",8.1 µL/g
same,"Vi, reversible vascular binding","[1]; male E4 LFD mice, hypothalamus",8.0 µL/g
same,"Vi, reversible vascular binding","[1]; male E4 LFD mice, occipital cortex",4.1 µL/g
same,"Vi, reversible vascular binding",[1]; [15],3.4 µL/g
same,"Vi, reversible vascular binding","[1]; male E4 LFD mice, striatum",4.4 µL/g
same,"Vi, reversible vascular binding","[1]; male E4 LFD mice, thalamus",4.1 µL/g
same,"Whole brain reversible vascular binding (Vi, y-axis intercept)","[1]; males, between apoE isoform/diet groups, p = 0.002",differences
same,"Ki, linear BBB transport (unidirectional influx rate)","[2]; female E3 HFD mice, cerebellum",1.34 µL/g/min
same,"Ki, linear BBB transport (unidirectional influx rate)",[2]; [3],0.96 µL/g/min
same,"Ki, linear BBB transport (unidirectional influx rate)","[2]; female E3 HFD mice, occipital cortex",1.03 µL/g/min
same,"Ki, linear BBB transport (unidirectional influx rate)","[2]; female E3 HFD mice, olfactory bulb",1.19 µL/g/min
same,"Ki, linear BBB transport (unidirectional influx rate)",[2]; [4],0.95 µL/g/min
same,"Ki, linear BBB transport (unidirectional influx rate)",[2]; [5],1.31 µL/g/min
same,"Ki, linear BBB transport (unidirectional influx rate)","[2]; female E3 HFD mice, striatum",1.32 µL/g/min
same,"Ki, linear BBB transport (unidirectional influx rate)","[2]; female E3 HFD mice, thalamus",0.91 µL/g/min
same,"Ki, linear BBB transport (unidirectional influx rate)","[2]; female E3 LFD mice, cerebellum",1.17 µL/g/min
same,"Ki, linear BBB transport (unidirectional influx rate)",[2]; [6],1.43 µL/g/min
same,"Ki, linear BBB transport (unidirectional influx rate)","[2]; female E3 LFD mice, midbrain",0.78 µL/g/min
same,"Ki, linear BBB transport (unidirectional influx rate)","[2]; female E3 LFD mice, occipital cortex",0.73 µL/g/min
same,"Ki, linear BBB transport (unidirectional influx rate)","[2]; female E3 LFD mice, olfactory bulb, no significant transport (p > 0.05)",1.06 µL/g/min
same,"Ki, linear BBB transport (unidirectional influx rate)","[2]; female E3 LFD mice, parietal cortex, no significant transport (p > 0.05)",0.64 µL/g/min
same,"Ki, linear BBB transport (unidirectional influx rate)",[2]; [7],0.91 µL/g/min
same,"Ki, linear BBB transport (unidirectional influx rate)","[2]; female E3 LFD mice, striatum",0.56 µL/g/min
same,"Ki, linear BBB transport (unidirectional influx rate)","[2]; female E3 LFD mice, thalamus, no significant transport (p > 0.05)",0.71 µL/g/min
same,"Ki, linear BBB transport (unidirectional influx rate)","[2]; female E4 HFD mice, cerebellum",1.04 µL/g/min
same,"Ki, linear BBB transport (unidirectional influx rate)",[2]; [8],0.62 µL/g/min
same,"Ki, linear BBB transport (unidirectional influx rate)","[2]; female E4 HFD mice, hypothalamus",1.41 µL/g/min
same,"Ki, linear BBB transport (unidirectional influx rate)","[2]; female E4 HFD mice, olfactory bulb",1.34 µL/g/min
same,"Ki, linear BBB transport (unidirectional influx rate)","[2]; female E4 HFD mice, parietal cortex",0.92 µL/g/min
same,"Ki, linear BBB transport (unidirectional influx rate)",[2]; [9],1.27 µL/g/min
same,"Ki, linear BBB transport (unidirectional influx rate)","[2]; female E4 HFD mice, striatum, no significant transport (p > 0.05)",0.85 µL/g/min
same,"Ki, linear BBB transport (unidirectional influx rate)","[2]; female E4 LFD mice, cerebellum",1.63 µL/g/min
same,"Ki, linear BBB transport (unidirectional influx rate)",[2]; [10],1.12 µL/g/min
same,"Ki, linear BBB transport (unidirectional influx rate)","[2]; female E4 LFD mice, midbrain",0.50 µL/g/min
same,"Ki, linear BBB transport (unidirectional influx rate)",[2]; [11],0.81 µL/g/min
same,"Ki, linear BBB transport (unidirectional influx rate)","[2]; female E4 LFD mice, striatum, no significant transport (p > 0.05)",0.30 µL/g/min
same,Whole brain BBB transport or vascular binding,"[2]; females, effect of genotype or diet",no differences
same,"Ki, linear BBB transport (unidirectional influx rate)","[2]; male E3 HFD mice, cerebellum",1.08 µL/g/min
same,"Ki, linear BBB transport (unidirectional influx rate)","[2]; male E3 HFD mice, hippocampus, no significant transport (p > 0.05)",1.08 µL/g/min
same,"Ki, linear BBB transport (unidirectional influx rate)","[2]; male E3 HFD mice, hypothalamus, no significant transport (p > 0.05)",0.57 µL/g/min
same,"Ki, linear BBB transport (unidirectional influx rate)","[2]; male E3 HFD mice, midbrain, no significant transport (p > 0.05)",0.96 µL/g/min
same,"Ki, linear BBB transport (unidirectional influx rate)",[2]; [12],0.88 µL/g/min
same,"Ki, linear BBB transport (unidirectional influx rate)","[2]; male E3 HFD mice, parietal cortex, no significant transport (p > 0.05)",-0.07 µL/g/min
same,"Ki, linear BBB transport (unidirectional influx rate)","[2]; male E3 HFD mice, striatum, no significant transport (p > 0.05)",0.04 µL/g/min
same,"Ki, linear BBB transport (unidirectional influx rate)","[2]; male E3 HFD mice, thalamus, no significant transport (p > 0.05)",0.65 µL/g/min
same,"Ki, linear BBB transport (unidirectional influx rate)","[2]; male E3 LFD mice, cerebellum",1.06 µL/g/min
same,"Ki, linear BBB transport (unidirectional influx rate)","[2]; male E3 LFD mice, hippocampus",0.92 µL/g/min
same,"Ki, linear BBB transport (unidirectional influx rate)","[2]; male E3 LFD mice, hypothalamus",1.22 µL/g/min
same,"Ki, linear BBB transport (unidirectional influx rate)","[2]; male E3 LFD mice, midbrain",0.40 µL/g/min
same,"Ki, linear BBB transport (unidirectional influx rate)",[2]; [13],0.75 µL/g/min
same,"Ki, linear BBB transport (unidirectional influx rate)",[2]; [14],1.28 µL/g/min
same,"Ki, linear BBB transport (unidirectional influx rate)","[2]; male E3 LFD mice, pons/medulla",1.41 µL/g/min
same,"Ki, linear BBB transport (unidirectional influx rate)","[2]; male E3 LFD mice, striatum, no significant transport (p > 0.05)",0.59 µL/g/min
same,"Ki, linear BBB transport (unidirectional influx rate)","[2]; male E3 LFD mice, thalamus, no significant transport (p > 0.05)",0.56 µL/g/min
same,"Ki, linear BBB transport (unidirectional influx rate)","[2]; male E4 HFD mice, hippocampus, no significant transport (p > 0.05)",0.36 µL/g/min
same,"Ki, linear BBB transport (unidirectional influx rate)","[2]; male E4 HFD mice, hypothalamus, no significant transport (p > 0.05)",0.35 µL/g/min
same,"Ki, linear BBB transport (unidirectional influx rate)","[2]; male E4 HFD mice, pons/medulla",0.65 µL/g/min
same,"Ki, linear BBB transport (unidirectional influx rate)","[2]; male E4 HFD mice, striatum, no significant transport (p > 0.05)",-0.12 µL/g/min
same,"Ki, linear BBB transport (unidirectional influx rate)","[2]; male E4 LFD mice, frontal cortex",0.65 µL/g/min
same,"Ki, linear BBB transport (unidirectional influx rate)","[2]; male E4 LFD mice, hippocampus",1.28 µL/g/min
same,"Ki, linear BBB transport (unidirectional influx rate)","[2]; male E4 LFD mice, hypothalamus, no significant transport (p > 0.05)",0.46 µL/g/min
same,"Ki, linear BBB transport (unidirectional influx rate)","[2]; male E4 LFD mice, midbrain",0.53 µL/g/min
same,"Ki, linear BBB transport (unidirectional influx rate)",[2]; [15],0.73 µL/g/min
same,"Ki, linear BBB transport (unidirectional influx rate)","[2]; male E4 LFD mice, striatum, no significant transport (p > 0.05)",0.57 µL/g/min
same,Whole brain BBB transport rate (Ki),"[2]; males, decreases due to HFD, p = 0.056",did not reach significance
